Target: IL-10 receptors IL-10RA and IL-10RB engineered into U2OS osteosarcoma cells (UniProt Q13651)
Assay: cell-based or functional assay

Substance: recombinant human IL-10 (rhIL-10) (from UniProt P22301 19-178) (ligand)
- EC50, luminescence from ligand-induced IL-10RA/IL-10RB receptor dimerization in engineered U2OS cells: 0.0915 nM

From patent US20260001927A1
